In US20250129329A1, “CULTURE MEDIUM FOR HEPATOMA ORGANOID CULTURE, HEPATOMA ORGANOID CULTURE METHOD, AND APPLICATION THEREOF” (PRECEDO PHARMACEUTICALS CO., LTD, priority 2021, published 2025):

Test system: hepatoma organoids isolated from liver cancer tissue
Experiment: Effects of medium additives on proliferation of hepatoma organoids (Example 1)
Assay type: cell-based, human
Conditions: additive in basic medium at the final concentration; organoid diameters after 7 days compared with Basic Medium
Description: First, a basic medium containing initial medium was prepared. […] In this embodiment, the formulation of the basic medium is: DMEM/F12 medium (purchased from Corning)+100 μg/mL Primocin (purchased from InvivoGen, 0.2% (v/v), commercial product has a concentration of 50 mg/ml).
Different types of additives (see Table 1) were added to the basic medium to prepare culture mediums for hepatoma organoid with different components.
Tissue samples (intraoperative) of liver cancer solid tumor were obtained from patients by professional medical practitioner of professional medical institutions, and all patients have signed the informed consent. Intraoperative samples having the size of 0.25 cm3 were stored and transported using commercial tissue preservation solution (manufacturer: Miltenyi Biotec).
• 3.1. Tissue samples were transferred from the ultra-clean workbench to a culture dish, and the tissue with blood was removed. […] The completion of digestion was determined via observation every 30 minutes, based on the existing of visible particles or not. • 3.4. […]
The primary liver cancer cells obtained in the above steps were resuspended with pre-cooled DMEM/F12 and counted. […] After 7 days, the cultured organoids were photographed and the diameters of the organoids were measured and compiled, so as to compare the promoting effects of various factors on the proliferation of hepatoma organoids. […]

B1: R-spondin1: R-spondin family protein, medium additive, supplier R&D (protein, UniProt Q2MKA7 21-263, looked up)
R-spondin-1: SRGIKGKRQRRISAEGSQACAKGCELCSEVNGCLKCSPKLFILLERNDIRQVGVCLPSCPPGYFDARNPDMNKCIKCKIEHCEACFSHNFCTKCKEGLYLHKGRCYPACPEGSSAANGTMECSSPAQCEMSEWSPWGPCSKKQQLCGFRRGSEERTRRVLHAPVGDHAACSDTKETRRCTVRRVPCPEGQKRRKGGQGRRENANRNLARKESKEAGAGSRRRKGQQQQQQQGTVGPLTSAGPA
- Level of promoting proliferation: +
